# US20210380703A1 (RIGEL PHARMACEUTICALS, published 2021)
# Columns and labels:
# Human ACVR2A [1] = target: T1, Human ACVR2A (human, UniProt P27037 20-135, limits assumed); assay: ELISA
# T1 construct: also called activin receptor, type II A
# Method in brief: (§1)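 Binding signal was read by ELISA after ACVR2A-specific monoclonal antibodies were tested against human ACVR2A and mouse ACVR2A, with human Fc as the negative control.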
# Mouse ACVR2A [2] = target: Mouse ACVR2A (mouse, UniProt P27038 20-135, limits assumed); assay: ELISA
# Mouse ACVR2A, sequence (P27038 20-135 limits assumed): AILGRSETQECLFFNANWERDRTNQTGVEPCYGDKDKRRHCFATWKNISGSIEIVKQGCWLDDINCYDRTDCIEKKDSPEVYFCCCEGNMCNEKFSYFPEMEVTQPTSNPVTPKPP
# Method in brief: as §1
# Goat anti-Human Kappa = target: T2, Goat anti-Human Kappa; assay: ELISA, positive control
# T2 construct: Positive control of the ELISA; also called biotinylated goat anti-human kappa light chain
# Method in brief: as §1
# human ACVR2A [3] = target: T3, human ACVR2A (human, UniProt P27037 20-135, limits assumed); assay: ELISA
# T3 construct: also called activin receptor, type II A
# T3 sequence (P27037 20-135 limits assumed): as the sequence (P27038 20-135 limits assumed) above, with R20K, I73V counted along it
# Method in brief: as §1
# mouse ACVR2A [4] = target: mouse ACVR2A (mouse, UniProt P27038 20-135, limits assumed); assay: ELISA
# mouse ACVR2A, sequence (P27038 20-135 limits assumed): as the sequence (P27038 20-135 limits assumed) above
# Method in brief: as §1
# [5] = target: T4, biotinylated goat anti-human kappa light chain; assay: ELISA, positive control
# T4 construct: Positive control of the ELISA
# Method in brief: as §1
# Also: test concentration or dose not given here.
# T1 sequence (P27037 20-135 limits assumed): as the sequence (P27038 20-135 limits assumed) above, with R20K, I73V counted along it
optical density (Human ACVR2A [1]),optical density (Mouse ACVR2A [2]),optical density (Goat anti-Human Kappa),optical density (human ACVR2A [3]),optical density (mouse ACVR2A [4]),optical density [5],Binder
3.5 OD,3.59 OD,3.02 OD,–,–,–,"374_D08 (antibody, V domains shown) VH: EVQLLESGGGLVQPGGSLRLSCAASGFTFDSYGMNWVRQAPGKGLEWVSGINYNSGYTGYADSVKGRFTISRDNSKNTLYLQMNSLRAEDTAVYYCARSANWHDTHLDYWGQGTLVTVSS VL: DIQMTQSPSSLSASVGDRVTITCRASQSILTYLNWYQQKPGKAPKLLIYAATSRHSGVPSRFSGSGSGTDFTLTISSLQPEDFATYYCQQSYESPLTFGGGTKVEIK"
3.71 OD,3.71 OD,3.24 OD,–,–,–,"374_C06 (antibody, V domains shown) VH: EVQLLESGGGLVQPGGSLRLSCAASGFTFDDYSMNWVRQAPGKGLEWVSSINYNSGYKGYADSVKGRFTISRDNSKNTLYLQMNSLRAEDTAVYYCARSANWHDTALDYWGQGTLVTVSS VL: DIQMTQSPSSLSASVGDRVTITCRASQSILTYVNWYQQKPGKAPKLLIYAATSRASGVPSRFSGSGSGTDFTLTISSLQPEDFATYYCQQSYNSPLTFGGGTKVEIK"
3.24 OD,3.56 OD,3.04 OD,–,–,–,"374_E01 (antibody, V domains shown) VH: EVQLLESGGGLVQPGGSLRLSCAASGFTFSSYGMNWVRQAPGKGLEWVAGINYNGGYTSYADSVKGRFTISRDNSKNTLYLQMNSLRAEDTAVYYCARSANWHDTALDYWGQGTLVTVSS VL: DIQMTQSPSSLSASVGDRVTITCRASQSISSYVNWYQQKPGKAPKLLIYAATSRASGVPSRFSGSGSGTDFTLTISSLQPEDFATYYCQQSYSTPLTFGGGTKVEIK"
3.24 OD,3.58 OD,2.94 OD,–,–,–,"374_D01 (antibody, V domains shown) VH: EVQLLESGGGLVQPGGSLRLSCAASGFTFDSYSMNWVRQAPGKGLEWVSGINYNSGYKGYADSVKGRFTISRDNSKNTLYLQMNSLRAEDTAVYYCARSANWHDTALDYWGQGTLVTVSS VL: DIQMTQSPSSLSASVGDRVTITCRASQSIITYVNWYQQKPGKAPKLLIYAATSLASGVPSRFSGSGSGTDFTLTISSLQPEDFATYYCQQSYSSPLTFGGGTKVEIK"
3.58 OD,3.61 OD,3.06 OD,–,–,–,"374_C03 (antibody, V domains shown) VH: EVQLLESGGGLVQPGGSLRLSCAASGFTFDSYSMNWVRQAPGKGLEWVSGINYNSGYTSYADSVKGRFTISRDNSKNTLYLQMNSLRAEDTAVYYCARSANWHDTALDYWGQGTLVTVSS VL: DIQMTQSPSSLSASVGDRVTITCRASQSILTYLNWYQQKPGKAPKLLIYAATSRASGVPSRFSGSGSGTDFTLTISSLQPEDFATYYCQQSYDSPLTFGGGTKVEIK"

# The remaining lines, values behind:
Binder,optical density (Human ACVR2A [1]),optical density (Mouse ACVR2A [2]),optical density (Goat anti-Human Kappa),optical density (human ACVR2A [3]),optical density (mouse ACVR2A [4]),optical density [5]
"374_B06 (antibody, V domains shown) VH: EVQLLESGGGLVQPGGSLRLSCAASGFTFDSYSMNWVRQAPGKGLEWVAGINYNSGYKGYADSVKGRFTISRDNSKNTLYLQMNSLRAEDTAVYYCARSANWHDTHLDYWGQGTLVTVSS VL: DIQMTQSPSSLSASVGDRVTITCRASQSILTYVNWYQQKPGKAPKLLIYAATSRASGVPSRFSGSGSGTDFTLTISSLQPEDFATYYCQQSYDTPLTFGGGTKVEIK",3.48 OD,3.6 OD,3.08 OD,–,–,–
"374_A03 (antibody, V domains shown, VH and VL only) VH: EVQLLESGGGLVQPGGSLRLSCAASGFTFDSYSMNWVRQAPGKGLEWVSNINYNGGYTSYADSVKGRFTISRDNSKNTLYLQMNSLRAEDTAVYYCARSATWHDTHLDYWGQGTLVTVSS VL: DIQMTQSPSSLSASVGDRVTITCRASQSILTYLNWYQQKPGKAPKLLIYAATSRASGVPSRFSGSGSGTDFTLTISSLQPEDFATYYCQQSYDNPLTFGGGTKVEIK",–,–,–,3.58 OD,3.71 OD,3.05 OD
"365_G02 (antibody, V domains shown, VH and VL only) VH: EVQLLESGGGLVQPGGSLRLSCAASGFTFSDYSMNWVRQAPGKGLEWVSNINYNSGYKGYADSVKGRFTISRDNSKNTLYLQMNSLRAEDTAVYYCARSATWHDTHLDYWGQGTLVTVSS VL: DIQMTQSPSSLSASVGDRVTITCRASQSIVTYLNWYQQKPGKAPKLVIYAVTSLHSGVPSRFSGSGSGTDFTLTISSLQPEDFATYYCQQSYELPLTFGGGTKVEIK",–,–,–,1.98 OD,2.15 OD,3.45 OD
"365_E08 (antibody, V domains shown, VH and VL only) VH: EVQLLESGGGLVQPGGSLRLSCAASGFTFDSYSMNWVRQAPGKGLEWVSGINYNSGYTSYADSVKGRFTISRDNSKNTLYLQMNSLRAEDTAVYYCARSATWHDTHLDYWGQGTLVTVSS VL: DIQMTQSPSSLSASVGDRVTITCRASQSIISYVNWYQQKPGKAPKLVIYAATSLASGVPSRFSGSGSGTDFTLTISSLQPEDFATYYCQQSYDLPLTFGGGTKVEIK",–,–,–,2.59 OD,2.58 OD,3.33 OD
"374_B12 (antibody, V domains shown) VH: EVQLLESGGGLVQPGGSLRLSCAASGFTFDSYSMNWVRQAPGKGLEWVAGINYNGGYTGYADSVKGRFTISRDNSKNTLYLQMNSLRAEDTAVYYCARSANWHDTHLDYWGQGTLVTVSS VL: DIQMTQSPSSLSASVGDRVTITCRASQSISSYLNWYQQKPGKAPKLVIYAATSRASGVPSRFSGSGSGTDFTLTISSLQPEDFATYYCQQSYDNPLTFGGGTKVEIK",3.49 OD,3.33 OD,3.05 OD,–,–,–
"365_E03 (antibody, V domains shown, VH and VL only) VH: EVQLLESGGGLVQPGGSLRLSCAASGFTFDSYSMNWVRQAPGKGLEWVSNINYNGGYTGYADSVKGRFTISRDNSKNTLYLQMNSLRAEDTAVYYCARSATWHDTHLDYWGQGTLVTVSS VL: DIQMTQSPSSLSASVGDRVTITCRASQSILTYVNWYQQKPGKAPKLLIYAATSLHSGVPSRFSGSGSGTDFTLTISSLQPEDFATYYCQQSDERPLTFGGGTKVEIK",–,–,–,2.56 OD,2.69 OD,3.33 OD
"365_D06 (antibody, V domains shown, VH and VL only) VH: EVQLLESGGGLVQPGGSLRLSCAASGFTFDSYSMNWVRQAPGKGLEWVSNINYNGGYTSYADSVKGRFTISRDNSKNTLYLQMNSLRAEDTAVYYCARSATWHDTHLDYWGQGTLVTVSS VL: DIQMTQSPSSLSASVGDRVTITCRASQSILTYVNWYQQKPGKAPKLLIYAATSRASGVPSRFSGSGSGTDFTLTISSLQPEDFATYYCQQSYSLPLTFGGGTKVEIK",–,–,–,2.95 OD,3.08 OD,3.42 OD
"365_A02 (antibody, V domains shown, VH and VL only) VH: EVQLLESGGGLVQPGGSLRLSCAASGFTFDSYSMNWVRQAPGKGLEWVSNINYNGGYTSYADSVKGRFTISRDNSKNTLYLQMNSLRAEDTAVYYCARSATWHDTHLDYWGQGTLVTVSS VL: DIQMTQSPSSLSASVGDRVTITCRASQSILTYVNWYQQKPGKAPKLLIYAATSRASGVPSRFSGSGSGTDFTLTISSLQPEDFATYYCQQSYNSPLTFGGGTKVEIK",–,–,–,3.03 OD,2.96 OD,3.49 OD
"365_A04 (antibody, V domains shown, VH and VL only) VH: EVQLLESGGGLVQPGGSLRLSCAASGFTFSDYSMNWVRQAPGKGLEWVSGINYNSGYTSYADSVKGRFTISRDNSKNTLYLQMNSLRAEDTAVYYCARSATWHDTHLDYWGQGTLVTVSS VL: DIQMTQSPSSLSASVGDRVTITCRASQSIVSYVNWYQQKPGKAPKLVIYAATSLASGVPSRFSGSGSGTDFTLTISSLQPEDFATYYCQQSYSTPLTFGGGTKVEIK",–,–,–,1.49 OD,1.41 OD,3.28 OD
